Source: the Human Domainome abundance scans (Beltran et al. 2025)
± gives the uncertainty stated by the source.

B1: SWI/SNF complex subunit SMARCC1, residues 620 to 663; numbered along this chain, Q92922 (parent)
chain: GREWTEQETLLLLEALEMYKDDWNKVSEHVGSRTQDECILHFLR

Variants of: B1
Assay: abundance fitness (aPCA) (normalised: wild type 0, dead -1); higher = more abundant; growth selection in yeast, the domain comes from the species named
Settings: Homo sapiens

L40S and L40R are within error of each other in abundance fitness: 0.266 ± 0.057 for the first, 0.157 ± 0.062 for the second.

L40N and D36G are within error of each other in abundance fitness: 0.135 ± 0.069 for the first, 0.039 ± 0.1 for the second.

Going from D36R to D36Y, the abundance fitness falls from -0.017 ± 0.054 to -0.374 ± 0.12.

Compared with D36S, D36M is lower in abundance fitness: 0.021 ± 0.056 for the first, -0.375 ± 0.17 for the second.

D36W and D36C are within error of each other in abundance fitness: -0.299 ± 0.14 for the first, -0.126 ± 0.16 for the second.

D36A and D36H are within error of each other in abundance fitness: -0.034 ± 0.064 for the first, -0.092 ± 0.09 for the second.

D36L and D36I are within error of each other in abundance fitness: -0.383 ± 0.073 for the first, -0.342 ± 0.094 for the second.

D36Q and D36T are within error of each other in abundance fitness: 0.041 ± 0.11 for the first, -0.042 ± 0.077 for the second.

Compared with D36P, D36V is lower in abundance fitness: -0.083 ± 0.066 for the first, -0.354 ± 0.075 for the second.

Going from D36F to D36E, the abundance fitness rises from -0.327 ± 0.11 to -0.002 ± 0.078.

W23C and W23H are within error of each other in abundance fitness: -0.48 ± 0.089 for the first, -0.696 ± 0.2 for the second.

W23K and W23M are within error of each other in abundance fitness: -0.503 ± 0.44 for the first, -0.32 ± 0.11 for the second.

W23V and W23G are within error of each other in abundance fitness: -0.783 ± 0.13 for the first, -0.631 ± 0.077 for the second.

Compared with W23D, W23T is lower in abundance fitness: -0.374 ± 0.15 for the first, -0.786 ± 0.12 for the second.

W23A and W23P are within error of each other in abundance fitness: -0.712 ± 0.12 for the first, -0.535 ± 0.11 for the second.

W23E and W23N are within error of each other in abundance fitness: -0.577 ± 0.15 for the first, -0.579 ± 0.13 for the second.

W23I and W23F are within error of each other in abundance fitness: -0.255 ± 0.23 for the first, -0.186 ± 0.14 for the second.

Compared with W23L, N24S is higher in abundance fitness: -0.528 ± 0.086 for the first, 0.119 ± 0.052 for the second.

N24T and N24I are within error of each other in abundance fitness: -0.029 ± 0.069 for the first, -0.13 ± 0.16 for the second.

Compared with N24K, N24R is lower in abundance fitness: 0.155 ± 0.084 for the first, -0.032 ± 0.057 for the second.

N24M and N24P are within error of each other in abundance fitness: 0.065 ± 0.084 for the first, 0.045 ± 0.072 for the second.

N24L and N24A are within error of each other in abundance fitness: 0.013 ± 0.056 for the first, 0.027 ± 0.062 for the second.

N24C and N24D are within error of each other in abundance fitness: -0.001 ± 0.077 for the first, 0.024 ± 0.096 for the second.

N24Y and N24E are within error of each other in abundance fitness: -0.097 ± 0.088 for the first, 0.042 ± 0.096 for the second.

N24Q and N24G are within error of each other in abundance fitness: 0.173 ± 0.11 for the first, 0.075 ± 0.061 for the second.

Compared with N24H, N24W is lower in abundance fitness: 0.006 ± 0.078 for the first, -0.168 ± 0.079 for the second.

Compared with G31I, G31Y is lower in abundance fitness: -0.174 ± 0.099 for the first, -0.487 ± 0.13 for the second.

G31V and G31D are within error of each other in abundance fitness: -0.028 ± 0.054 for the first, -0.205 ± 0.14 for the second.

First: G31C
Second: G31N
The abundance fitness of the first is higher: -0.009 ± 0.072 for the first, -0.259 ± 0.15 for the second.

G31E and G31A are within error of each other in abundance fitness: 0.032 ± 0.064 for the first, -0.03 ± 0.073 for the second.

First: G31P
Second: G31K
The abundance fitness of the first is lower: -0.11 ± 0.061 for the first, 0.073 ± 0.084 for the second.

Going from G31M to G31L, the abundance fitness falls from -0.059 ± 0.087 to -0.528 ± 0.077.

G31W and G31Q are within error of each other in abundance fitness: -0.543 ± 0.11 for the first, -0.518 ± 0.089 for the second.

G31F and R33T are within error of each other in abundance fitness: -0.375 ± 0.15 for the first, -0.464 ± 0.13 for the second.

Going from R33A to R33S, the abundance fitness falls from -0.285 ± 0.084 to -0.678 ± 0.099.

R33V and R33G are within error of each other in abundance fitness: -0.387 ± 0.09 for the first, -0.569 ± 0.094 for the second.

First: R33E
Second: R33Y
The abundance fitness of the first is higher: -0.319 ± 0.15 for the first, -0.744 ± 0.15 for the second.

R33N and R33I are within error of each other in abundance fitness: -0.884 ± 0.18 for the first, -0.885 ± 0.14 for the second.

First: R33K
Second: R33M
The abundance fitness of the first is higher: 0.037 ± 0.08 for the first, -0.585 ± 0.13 for the second.

R33Q and R33C are within error of each other in abundance fitness: -1.01 ± 0.44 for the first, -0.944 ± 0.17 for the second.

R33L and R33P are within error of each other in abundance fitness: -0.832 ± 0.15 for the first, -0.653 ± 0.13 for the second.

R33W and R33H are within error of each other in abundance fitness: -0.404 ± 0.087 for the first, -0.251 ± 0.087 for the second.

First: H41C
Second: H41S
The abundance fitness of the first is higher: -0.089 ± 0.14 for the first, -0.357 ± 0.071 for the second.

Compared with H41W, H41K is higher in abundance fitness: -0.142 ± 0.11 for the first, 0.223 ± 0.11 for the second.

Going from H41T to H41I, the abundance fitness falls from -0.161 ± 0.059 to -0.537 ± 0.15.

First: H41F
Second: H41N
The abundance fitness of the first is lower: -0.189 ± 0.15 for the first, 0.097 ± 0.12 for the second.

First: H41M
Second: H41G
The abundance fitness of the first is higher: -0.187 ± 0.12 for the first, -0.407 ± 0.092 for the second.

First: H41A
Second: H41E
The abundance fitness of the first is higher: 0.064 ± 0.059 for the first, -0.178 ± 0.11 for the second.

First: H41Y
Second: H41Q
The abundance fitness of the first is higher: 0.184 ± 0.098 for the first, -0.21 ± 0.095 for the second.

Going from H41R to H41L, the abundance fitness falls from -0.019 ± 0.074 to -0.247 ± 0.06.

First: S27C
Second: S27W
The abundance fitness of the first is higher: -0.119 ± 0.1 for the first, -0.56 ± 0.15 for the second.

S27K and S27V are within error of each other in abundance fitness: 0.145 ± 0.071 for the first, 0.039 ± 0.076 for the second.

First: S27A
Second: S27L
The abundance fitness of the first is higher: 0.168 ± 0.076 for the first, -0.375 ± 0.13 for the second.

First: S27P
Second: S27H
The abundance fitness of the first is lower: -0.319 ± 0.081 for the first, 0.063 ± 0.072 for the second.

S27I and S27N are within error of each other in abundance fitness: -0.149 ± 0.13 for the first, -0.204 ± 0.092 for the second.

First: S27D
Second: S27R
The abundance fitness of the first is lower: -0.558 ± 0.14 for the first, 0.01 ± 0.068 for the second.

First: S27Q
Second: S27M
The abundance fitness of the first is higher: 0.246 ± 0.1 for the first, -0.248 ± 0.11 for the second.

Going from S27F to S27G, the abundance fitness rises from -0.516 ± 0.24 to 0.056 ± 0.068.

Going from S27E to S27Y, the abundance fitness falls from 0.105 ± 0.072 to -0.305 ± 0.13.

C38W and C38S are within error of each other in abundance fitness: -0.79 ± 0.31 for the first, -0.624 ± 0.087 for the second.

C38L and C38G are within error of each other in abundance fitness: -0.5 ± 0.11 for the first, -0.778 ± 0.21 for the second.

Compared with C38Y, C38T is higher in abundance fitness: -0.903 ± 0.33 for the first, -0.4 ± 0.12 for the second.

C38H and C38A are within error of each other in abundance fitness: -0.774 ± 0.17 for the first, -0.572 ± 0.11 for the second.

C38I and C38D are within error of each other in abundance fitness: -0.361 ± 0.076 for the first, -0.296 ± 0.17 for the second.

C38Q and C38P are within error of each other in abundance fitness: -0.514 ± 0.16 for the first, -0.73 ± 0.12 for the second.

Compared with C38V, C38M is lower in abundance fitness: -0.348 ± 0.089 for the first, -1.09 ± 0.34 for the second.

Going from C38R to Q35E, the abundance fitness rises from -0.367 ± 0.13 to -0.075 ± 0.079.

Q35V and Q35A are within error of each other in abundance fitness: -0.017 ± 0.064 for the first, -0.038 ± 0.076 for the second.

Q35H and Q35L are within error of each other in abundance fitness: 0.012 ± 0.095 for the first, -0.077 ± 0.073 for the second.

Going from Q35P to Q35S, the abundance fitness rises from -0.136 ± 0.079 to 0.073 ± 0.058.

Q35C and Q35M are within error of each other in abundance fitness: 0.079 ± 0.15 for the first, -0.061 ± 0.36 for the second.

Going from Q35Y to Q35T, the abundance fitness rises from -0.166 ± 0.1 to 0.044 ± 0.073.

Going from Q35K to Q35G, the abundance fitness falls from 0.261 ± 0.061 to 0.056 ± 0.065.

Q35D and Q35W are within error of each other in abundance fitness: 0.05 ± 0.41 for the first, -0.336 ± 0.15 for the second.

Q35N and Q35I are within error of each other in abundance fitness: 0.063 ± 0.083 for the first, -0.186 ± 0.18 for the second.

S32M and S32R are within error of each other in abundance fitness: -0.083 ± 0.087 for the first, -0.176 ± 0.067 for the second.

S32C and S32L are within error of each other in abundance fitness: -0.124 ± 0.082 for the first, -0.224 ± 0.062 for the second.

S32W and S32P are within error of each other in abundance fitness: -0.622 ± 0.19 for the first, -0.419 ± 0.1 for the second.

S32K and S32N are within error of each other in abundance fitness: 0.05 ± 0.077 for the first, 0.025 ± 0.097 for the second.

Going from S32V to S32A, the abundance fitness rises from -0.191 ± 0.074 to -0.015 ± 0.064.

S32E and S32T are within error of each other in abundance fitness: 0.105 ± 0.088 for the first, 0.203 ± 0.056 for the second.

Going from S32Q to S32Y, the abundance fitness falls from 0.032 ± 0.068 to -0.182 ± 0.13.

Compared with S32G, S32I is lower in abundance fitness: 0.115 ± 0.057 for the first, -0.135 ± 0.085 for the second.

Work on S32H yielded an abundance fitness of -0.138 ± 0.064.
